Assay results published in patent US20080139790A1 (ARANA THERAPEUTICS, published 2008).
Positions count from the first letter of the chain named.

T1: rat MOG (myelin-oligodendrocyte glycoprotein) (rat, UniProt Q63345 28-245)
T1 construct: mature; Not a purified protein: identified by the band size of about 25 kDa in a western blot of rat spinal cord lysate; also called antigen of M26; protein of size 25 kDa
T1 sequence (looked up): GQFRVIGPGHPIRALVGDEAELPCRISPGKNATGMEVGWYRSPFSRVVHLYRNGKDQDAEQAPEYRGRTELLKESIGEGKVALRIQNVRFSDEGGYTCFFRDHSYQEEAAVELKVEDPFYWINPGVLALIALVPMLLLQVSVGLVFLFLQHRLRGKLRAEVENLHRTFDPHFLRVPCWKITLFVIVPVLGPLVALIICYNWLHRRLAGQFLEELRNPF

B1: AB138 (antibody, human IgG1, kappa, V domains shown)
VH: QVQLVQSGAEVKKPGASVKVSCKASGYTFTSYAISWARQPPGQGLEWMGAFDPEYGSTTYAQKFQGRVTMTADTSTSTAYMELSSLRPEDTAVYYCARDVNFGNYFDYWGQGTLVTVSS
VL: ELVMTQSPATLSLSPGERATVSCRAGQSVSYYLAWYQQKPGQAPRLLIYGASTRATGIPARFSGSRSGTDFTLTISSLEPEDFAVYYCQQYSSWPPTFGQGTKLEIKR
notes: Expressed in CHOK1SV cells, purified on Protein A; also called marmoset human fusion antibody; MOG specific marmoset derived antibody variable regions with human IgG1 / kappa constant regions
B2: CDR2-substituted domain antibody SEQ ID No 26 (other)
chain: DIQMTQSPSSLSASGDRVTITCRASQSIDSYLHWYQQKPGKAPKLLIYAASNRASGVPSRFSGSGSGTDFTLTISSLQPEDFATYYCQQVVWRPFTFGQGTKVEIKR
notes: not shown: 6xHIS tag introduced by vector pBAD/gIII
B3: CDR2-substituted domain antibody SEQ ID No 25 (other)
chain: B2 chain with A49K, A50V
notes: Secretory signal peptide from the vector, expressed in E. coli periplasm; not shown: 6xHIS tag introduced by vector pBAD/gIII
B4: CDR2-substituted domain antibody SEQ ID No 28 (other)
chain: B2 chain with A49Y, N52F, R53L, A54Q, S55G
notes: as for B2
B5: CDR2-substituted domain antibody SEQ ID No 29 (other)
chain: B2 chain with A49R, A50V
notes: as for B2
B6: CDR2-substituted domain antibody SEQ ID No 31 (other)
chain: B2 chain with A49D, N52S, R53L, A54Q, S55P
notes: as for B2
B7: unsubstituted acceptor anti-TNFα domain antibody (SEQ ID No: 7) (other)
chain: B2 chain with A49S, N52E, R53L, A54Q
notes: Single variable domain (domain antibody, dAb) from Basran et al. WO 2004/081026, CDR2 SASELQS; also called acceptor domain antibody; not shown: 6xHIS tag from vector pBAD/gIII (detection was by anti-HIS antibody); its positi

Each binder was assayed against T1, rat MOG (myelin-oligodendrocyte …) (assay: western blot of rat spinal cord lysate, AB138 at 10 ug/mL, anti-human IgG HRP).
Protocol: The ability of AB138 to retain binding to the antigen of M26, rat MOG (myelin-oligodendrocyte glycoprotein), was investigated by Western Blot. 130 mg of rat spinal cord (IMVS, Australia) was homogenized in 1.8 ml CelLytic M Cell Lysis Reagent (SIGMA, C2978) and incubated for 30 minutes at 4° C. Further homogenization was performed by drawing the lysate through a 27 g1/2 needle several times followed by centrifugation at 4° C. and 13000 g for 30 minutes. The pellet and supernatant was diluted into SDS-PAGE sample buffer (125 mM Tris-HCl pH 6.8, 5% SDS, 0.25% bromophenol blue, 25% glycerol). Along with this 200 μl CHOK1SV cells at 1×10⁶ viable cells per ml were spun down at 13000×g at 4° C. for 1 minute and resuspended in 200 μl CelLytic M Cell Lysis Reagent (SIGMA). Following centrifugation at 4° C. and 13000×g for 30 minutes the supernatant was mixed with the appropriate amount of SDS-PAGE sample buffer. All samples, along with a sample of molecular weight markers, were run on a 4-20% Novex pre-cast gel (Invitrogen, Australia) for 2 hours at 120V. Proteins were then transferred to PVDF (BioRad, Australia) using a western blot apparatus in 1× Tris-Glycine Buffer with 20% methanol (BioRad, Cat 161+-0771) at 4° C. at 250 mA for 2 hours. […] Following washing, bound antibody was detected using the ECL Western Blotting Analysis System, (Amersham Biosciences Cat: RPN2109). […]

Binder | binding result
B1 | binds

The binders below were run against T2, TNF-α (Peprotech Cat No: 300-01A) (UniProt P01375 77-233) (assay: ELISA, TNF-α coated at 1 µg/mL, detection with anti-HIS HRP).
T2 construct: Coated on the ELISA plate at 1 µg/mL
Protocol: TNF-α (Peprotech Cat No: 300-01A) was diluted to 1 μg/mL in carbonate coating buffer ([…] pH 9.6). 100 μL of this solution was added to a well of a 96 well plate and incubated at 4° C. overnight in a humidified container. The plate was then washed three times with wash buffer (0.01M PBS pH 7.2, 0.05% Tween-20) and then three times with 0.01M PBS pH 7.2. The wells were then blocked by adding 200 μL blocking buffer (1% w/v BSA in 0.01M PBS pH 7.2) to each well and incubating the plate at 25° C., in a humidified container, for 1 hour. Desalted domain antibody protein sample was diluted in antibody diluent (1% w/v BSA, 0.05% Tween-20 in 0.01M PBS pH 7.2) and added to the wells contain TNF-α and allowed to incubate for 1 hour at 25° C. The plate was then washed as previously described. 100 μL of Anti-HIS antibody HRP conjugate (Sigma-Aldrich, Australia Cat No: A7058) at 1:2000 in antibody diluent was used to detect bound domain antibody. Wells with antibody diluent only were used to assess background absorbance. After incubation at 25° C., in a humidified container, for 1 hour the plate washed again as previously described. 100 μL TMB substrate solution (Zymed, Cat No: 00-2023) was added to each well and the colour allowed to develop for 4 min. 100 μL of 1M HCl was added to terminate the colour development reaction and absorbance was determined at 450 nm (ref. 620 nm)

T2 sequence (P01375 77-233 limits assumed): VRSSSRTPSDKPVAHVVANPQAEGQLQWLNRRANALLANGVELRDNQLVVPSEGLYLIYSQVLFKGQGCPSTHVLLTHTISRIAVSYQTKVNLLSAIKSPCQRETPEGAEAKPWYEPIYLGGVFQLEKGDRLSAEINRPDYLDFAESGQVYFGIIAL

Binder | binding result
B2 | binds
B3 | binds
B4 | binds
B5 | binds
B6 | binds
B7 | binds
